Data published in US20100298225A1, “PEPTIDE GAP JUNCTION MODULATORS” (priority 2007, published 2010).
“Also recorded” adds a separate entry of the source.

Columns and labels:
[1] = target: T1, Cx43-expressing N2a cells (Rattus norvegicus, UniProt P08050); test: Dual patch clamp: octanol-induced uncoupling, junctional conductance between cell pairs; format: cell-based; details: for Effect on octanol-induced uncoupling: Vj 60 mV
T1 construct: expressed in transfected cells; host or cells: N2a (neuroblastoma) cells
Description: Experiments were conducted on N2a (Neuroblastoma) cells. Cx43 was expressed either in a lac-switch stable system (induced by 0.1-1.0 mM of IPTG (Zhong et al., “LacSwitch II Regulation of Connexin43 cDNA Expression Enables Gap-junction Single-channel Analysis,” Biotechniques 34(5):1034-1034, 1041-1044, 1046 (2003), which is hereby incorporated by reference in its entirety)) or transiently using an IRES plasmid coding for eGFP (Seki et al., “Modifications in the Biophysical Properties of Connexin43 Channels by a Peptide of the Cytoplasmic Loop Region,” Circ. Res. 95(4):e22-e28 (2004); Seki et al., “Loss of Electrical Communication, but Not Plaque Formation, After Mutations in the Cytoplasmic Loop of Connexin43,” Heart Rhythm. 1(2):227-233 (2004), which are hereby incorporated by reference in their entirety). M257 (a mutant of Cx43 truncated at amino acid 257 (Morley et al., “Intramolecular Interactions Mediate pH Regulation of Connexin43 Channels,” Biophys. J. 70(3):1294-1302 (1996), which is hereby incorporated by reference in its entirety)) was transiently expressed in N2a cells also using an eGFP-containing IRES plasmid. Cells were placed on the stage of an inverted microscope equipped for epifluorescence (Nikon Diaphoto200, Filter: 520 to 560 nm). Junctional current (I) was recorded from eGFP-positive cell pairs in a dual-whole-cell voltage clamp configuration (holding potentials: −40 mV; transjuctional voltage, Vj, +[…]; step duration, 10-30 seconds). Patch pipettes were filled with a cesium-containing solution (Seki et al., “Modifications in the Biophysical Properties of Connexin43 Channels by a Peptide of the Cytoplasmic Loop Region,” Circ. Res. 95(4):e22-e28 (2004); Seki et al., “Loss of Electrical Communication, but Not Plaque Formation, After Mutations in the Cytoplasmic Loop of Connexin43,” Heart Rhythm. 1(2):227-233 (2004), which are hereby incorporated by reference in their entirety). For the low pH experiments, HEPES was replaced by MES (10 mM). Pipette resistance was 4.0-6.0MΩ. Synthetic peptides were diluted in the pipette solution to a final concentration of 0.1 mM. During recording, cells were kept at room temperature in a cesium-containing solution (Seki et al., “Modifications in the Biophysical Properties of Connexin43 Channels by a Peptide of the Cytoplasmic Loop Region,” Circ. Res. 95(4):e22-e28 (2004); Seki et al., “Loss of Electrical Communication, but Not Plaque Formation, After Mutations in the Cytoplasmic Loop of Connexin43,” Heart Rhythm. 1(2):227-233 (2004), which are hereby incorporated by reference in their entirety). For some experiments, octanol (2.0 mM) was superfused during recording. Data acquisition and recording, and criteria for single channel detection were as reported in Seki et al., “Modifications in the Biophysical Properties of Connexin43 Channels by a Peptide of the Cytoplasmic Loop Region,” Circ. Res. 95(4):e22-e28 (2004) and Seki et al., “Loss of Electrical Communication, but Not Plaque Formation, After Mutations in the Cytoplasmic Loop of Connexin43,” Heart Rhythm. 1(2):227-233 (2004), which are hereby incorporated by reference in their entirety.
Compounds were tested for their ability to interfere with octanol-induced uncoupling. Compounds are tested for their ability to interfere with acidification induces uncoupling.
Experiments were modeled after those described in Shibayama et al (2006). Junctional conductance between Cx43-expressing N2a cell pairs was assessed using conventional dual patch clamp. Peptides were diluted in the patch pipette solution and the cells will be exposed either to octanol or to a low intracellular pH. Control experiments were carried out in the absence of the compound. The results are shown in FIGS. 3A-E, which are graphs of the time course of octanol-induced changes in coupling recorded from Cx43-expressing N2a cells. FIGS. 3A-E relate to peptides 2517, 2518, 2529, 2520 and 2624 respectively. […]

[2] = target: T2, carboxyl terminal domain (CT) of Cx43 (Rattus norvegicus, UniProt P08050); test: Peptide binding to Cx43CT determined using surface plasmon resonance (SPR); details: immobilised recombinant Cx43CT
T2 construct: GST (N, cleaved yes); made in house; host or cells: E. coli BL-21
Description: 277(39):36706-36714 (2002), which is hereby incorporated by reference in its entirety. Briefly, cDNA derived from rat Cx43 was inserted into pGEX-6P-2 (Amersham) and expressed in E. coli (BL-21). The resultant GST-fusion protein was cleaved from the GST PreScission Protease® (Amersham Biosciences). The recombinant product after cleavage contained the sequence 255-382 of rCx43 preceded by four additional amino acids (GPLG). Protein concentration was measured using the Bio-Rad DC Protein Assay. Protein purity was assessed by SDS-PAGE.
Recombinant Cx43CT was covalently bound to a carboxylmethyl dextran matrix (Salamon et al., “Surface Plasmon Resonance Spectroscopy as a Tool for Investigating the Biochemical and Biophysical Properties of Membrane Protein Systems. II: Applications to Biological Systems,” Biochim. Biophys. Acta 1331(2):131-152 (1997), which is hereby incorporated by reference in its entirety). Specific peptides were presented and, when feasible, dissociation constants (KD) were calculated from the time course of binding and unbinding of the ligand, using a 1:1 (Langmuir) association and dissociation kinetic model (Biacore software package). In both phases (association and dissociation), the first 5-8 seconds of recording were not included in the fit, to avoid artifacts resulting from peptide distribution within the flow cells (Lang et al., “Surface Plasmon Resonance as a Method to Study the Kinetics and Amplitude of Protein-protein Binding,” in PRACTICAL METHODS IN CARDIOVASCULAR RESEARCH 936-947 (Stefan Dhein, Friedrich Wilhelm Mohr & Mario Delmar eds., 2005), which is hereby incorporated by reference in its entirety).
The peptides shown in table 2 and 3 were tested for binding to the carboxyl terminal domain (CT) of Cx43 using Surface Plasmon Resonance (“SPR”). SPR is a method that was used to identify the original RXPE sequence (Shibayama et al., “Identification of a Novel Peptide that Interferes with the Chemical Regulation of Connexin-43,” Circ. Res. 98:1365-72 (2006)). The amplitude of the response is also a function of the mass of the ligate, and the normalized data according to the individual peptide Mw's are shown in table 3.

[3] = 0.1 mM peptide in internal pipette solution, octanol superfusion

T2 sequence (P08050 255-382): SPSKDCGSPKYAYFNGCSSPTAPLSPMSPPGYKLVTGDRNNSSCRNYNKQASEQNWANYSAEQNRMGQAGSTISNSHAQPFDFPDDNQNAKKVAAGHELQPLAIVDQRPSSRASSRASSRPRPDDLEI
T1 sequence (P08050 whole entry): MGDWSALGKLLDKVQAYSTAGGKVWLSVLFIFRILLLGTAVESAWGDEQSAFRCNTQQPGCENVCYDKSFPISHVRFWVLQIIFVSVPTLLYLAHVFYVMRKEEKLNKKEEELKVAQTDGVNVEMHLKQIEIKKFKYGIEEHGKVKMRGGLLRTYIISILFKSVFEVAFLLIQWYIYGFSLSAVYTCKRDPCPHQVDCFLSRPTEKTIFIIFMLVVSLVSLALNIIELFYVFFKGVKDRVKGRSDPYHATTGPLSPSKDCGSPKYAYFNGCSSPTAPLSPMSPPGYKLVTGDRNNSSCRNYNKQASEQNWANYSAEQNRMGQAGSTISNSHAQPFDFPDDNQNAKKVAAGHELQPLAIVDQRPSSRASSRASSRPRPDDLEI

| Substance | Ability to re-open gap junctions closed by the uncoupler (revert uncoupled cells to coupled) [1, 3] | Effect on octanol-induced uncoupling [1, 3] | Average junctional conductance (Gj) as a function of time after onset of octanol ([1]; 0.1 mM peptide in pipette, Gj relative to value before octanol, N=7 pairs) | Cell pairs that remained coupled / uncoupled following onset of octanol superfusion ([1]; seven cell pairs, peptide in pipette, uncoupling = zero junctional current at 60-mV pulse) | SPR respons ([2]; peptide 25 uM) [arbitrary units] | SPR respons ([2]; peptide 100 uM) [arbitrary units] | SPR respons ([2]; peptide 250 uM) [arbitrary units] | SPR respons ([2]; peptide 500 uM) [arbitrary units] | SPR respons ([2]; peptide 1 mM) [arbitrary units] |
| --- | --- | --- | --- | --- | --- | --- | --- | --- | --- |
| Ac-Arg-Arg-Asn-Tyr-Gly-Gly-Gly-Ser-Ala-Val-Pro-Phe-Tyr-Ser-His-Ser-Arg-Arg-Asn-Tyr-NH2 (Ac-RRNYGGGSAVPFYSHSRRNY-NH2) [Compound 2366] | able to revert uncoupled cells to couple cells; also recorded: re-open gap junctions that were initially closed by the uncoupler | prevented octanol-induced uncoupling | decreased at first and then increased | uncoupled and then recoupled |  |  |  |  |  |
| Ac-Arg-Arg-Asn-Tyr-Arg-Arg-Asn-Tyr-NH2 (Ac-RRNYRRNY-NH2) [Compound 2497] |  | prevented octanol-induced uncoupling; also recorded: preventing the uncoupling of GJ |  |  | 30.2 | 84.2 | 201.5 | 327.5 | 565.2 |
